From patent publication US20250250555A1 (DENALI THERAPEUTICS, published 2025)

How the values were obtained:
Assay in all cases: SPR (Biacore), fusion protein captured on chip, human apical domain TfR injected, steady-state fit
ETV:GAA Fusion 2 = molecular target: T1, ETV:GAA Fusion 2 (human, UniProt P0DOX5 223-449 = IgG part)
T1 construct: Heterodimer of the two chains; also called N-terminal monozyme GAA-Fc fusion protein
Experimental: (§1) To determine whether GAA-Fc fusion proteins with engineered TfR binding affects the ability of the modified Fc domain to interact with human TfR, the affinity of ETV:GAA fusion proteins (Example 1) for human TfR was assessed using a Biacore™ surface plasmon resonance assay. Biacore™ Series S CM5 sensor chips were immobilized with anti-human Fab (human Fab capture kit from GE Healthcare). Five (5) μg/mL of the GAA-Fc fusion proteins were captured for 1 minute on each flow cell and serial 3-fold dilutions of human apical domain TfR were injected at a flow rate of 30 μL/min. Each sample was analyzed with a 3-minute association and a 3-minute dissociation. After each injection, the chip was regenerated using 10 mM glycine-HCl (pH 2.1). Binding response was corrected by subtracting the RU from a flow cell capturing an irrelevant IgG at similar density. Steady-state affinities were obtained by fitting the response at equilibrium against the concentration using Biacore™ T200 Evaluation Software v3.1.

ETV:GAA Fusion 1 = molecular target: T2, ETV:GAA Fusion 1 (human, UniProt P0DOX5 223-449 = IgG part)
T2 construct: Heterodimer of the two chains; also called N-terminal monozyme GAA-Fc fusion protein
Experimental: as §1

ETV:GAA Fusion 3 = molecular target: T3, ETV:GAA Fusion 3 (human, UniProt P0DOX5 223-449 = IgG part)
T3 construct: Heterodimer of the two chains; also called C-terminal monozyme GAA-Fc fusion protein
Experimental: as §1

ETV:GAA Fusion 4 = molecular target: T4, ETV:GAA Fusion 4 (human, UniProt P0DOX5 223-449 = IgG part)
T4 construct: Heterodimer of the two chains; also called C-terminal monozyme GAA-Fc fusion protein
Experimental: as §1

B1: human apical domain TfR (receptor)
chain: NSVIIVDKNGRLVYLVENPGGYVAYSKAATVTGKLVHANFGTKKDFEDLYTPVNGSIVIVRAGKITFAEKVANAESLNAIGVLIYMDQTKFPIVNAELSFFGHAHLGTGDPYTPGFPSFNHTQFPPSRSSGLPNIPVQTISRAAAEKLFGNMEGDCPSDWKTDSTCRMVTSESKNVKLTVS
notes: also called human TfR; huTfR
Kd (ETV:GAA Fusion 2): 260 nM
Kd (ETV:GAA Fusion 1): 251 nM
Kd (ETV:GAA Fusion 3): 282 nM
Kd (ETV:GAA Fusion 4): 271 nM
